In PMC3098264, “Crystal Structure of the PAC1R Extracellular Domain Unifies a Consensus Fold for Hormone Recognition by Class B G-Protein Coupled Receptors” (PLoS ONE, 2011):
Entries after “also recorded” stand apart in the source; their conditions may differ.

target: T1, human PAC1R ECD (MBP-PAC1R (25–140)-His6) (Homo sapiens, UniProt P41586); experiment: AlphaScreen competitive peptide binding assay (unlabelled PACAP peptides vs biotin-PACAP (6–38)-NH2); details: Ala scanning mutants of PACAP (15–31), 120 µM untagged competing peptides, 40 nM protein and biotinylated PACAP, 20°C, five hours, pH 7.4
T1 construct: made in house; host or cells: E. coli Origami B (DE3), co-expressed with DsbC from pET-Duet1
T1 sequence (P41586 25-140 isoform P41586-3): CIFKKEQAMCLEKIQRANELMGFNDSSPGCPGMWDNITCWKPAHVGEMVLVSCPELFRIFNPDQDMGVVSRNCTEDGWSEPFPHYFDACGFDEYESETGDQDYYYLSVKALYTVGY
Description: The binding of PAC1R with a 35 residue PACAP peptide was analysed using the histidine detection kit of AlphaScreen® luminescent proximity assay from PerkinElmer. All binding assays were performed without cleaving the MBP tag from the receptor ECD. Using its C-terminal His tag, PAC1R was bound to Ni-chelate coated acceptor beads (5 µg/ml) at the final concentrations of 40 nM. Similarly, biotinylated PACAP was bound to streptavidin coated donor beads (5 µg/ml) at the final concentrations of 40 nM. The protein and peptide were pre-incubated with the respective beads for one hour (to ensure maximal binding to the beads), then they were allowed to interact with each other at 20°C for five hours. To perform competitive binding assays, 120 µM of the untagged competing peptides were added at time 0 of the five hour protein-peptide interaction period. All interactions were performed in the background of 50 mM MOPS pH 7.4, 150 mM NaCl and 7 mg/ml BSA. The binding signals were measured in a 384-well microplate using an Envision 2104 plate reader (PerkinElmer). The obtained data for competitive peptide binding were fit as a non-linear regression curve using the variable slope dose-response inhibition analysis using the Prism5.0 (GraphPad). To ensure the specificity of the competing peptides, a control peptide of biotin-Gly6-His6 was used in the same assay setup.

Row | Substance | effect of Ala mutation in PACAP (15–31) on binding to PAC1R ECD (Ala scanning)
1 | K20A′: Ala scanning mutant of PACAP (15–31) (KQMAVAKYLAAVLGKRY; Pituitary adenylate cyclase-activating polypeptide 38; UniProt P18509 146-162, looked up, variant K20A) | affect the binding to PAC1R the most; also recorded: almost completely abolishes the ability of the peptide to bind the receptor ECD
2 | L27A′: Ala scanning mutant of PACAP (15–31) (KQMAVKKYLAAVAGKRY; Pituitary adenylate cyclase-activating polypeptide 38; UniProt P18509 146-162, looked up, variant L27A) | seem to play important roles in the binding; also recorded: affect the binding to PAC1R the most
3 | V19A′: Ala scanning mutant of PACAP (15–31) (KQMAAKKYLAAVLGKRY; Pituitary adenylate cyclase-activating polypeptide 38; UniProt P18509 146-162, looked up, variant V19A) | seem to play important roles in the binding; also recorded: affect the binding to PAC1R the most
